The source of these data is patent publication US20040001839A1, “Multimers - isolated molecules comprising epitopes containing sulfated moieties, antibodies to such epitopes, and uses thereof” (priority 2000, published 2004).

The target in assay [1] is T1, PSGL-1 on KG-1 cells (human) (UniProt Q14242).
T1 sequence (sulfated tyrosine residues at the N-terminal site, looked up): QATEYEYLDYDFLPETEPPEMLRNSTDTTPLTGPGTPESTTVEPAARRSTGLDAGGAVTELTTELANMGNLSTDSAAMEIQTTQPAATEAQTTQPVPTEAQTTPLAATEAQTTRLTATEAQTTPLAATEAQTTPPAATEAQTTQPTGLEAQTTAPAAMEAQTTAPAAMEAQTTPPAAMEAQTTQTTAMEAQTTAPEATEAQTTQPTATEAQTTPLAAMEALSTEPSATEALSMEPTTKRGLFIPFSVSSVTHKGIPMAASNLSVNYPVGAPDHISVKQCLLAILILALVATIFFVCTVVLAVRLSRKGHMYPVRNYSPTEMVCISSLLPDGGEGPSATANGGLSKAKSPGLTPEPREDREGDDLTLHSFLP
Nature of the assay: FACS, KG-1 cells.

In assay [2] the target is T1, PSGL-1 on KG-1 cells (human). Put plainly: FACS on KG-1 cells.
Assay [3] has the same target. Nature of the assay: FACS, KG-1 cells, 5 ng tetramers. A general note: In flow cytometry, cells or beads pass a laser one at a time.
The target of assay [4] is Y1 scFv. Put plainly: competition ELISA: Y1 0.25 µg/well preincubated with peptide at 25 µM, residual binding to glycocalicin. Conditions: remark: other sources report otherwise. For orientation: In an ELISA, binding on a coated surface is turned into a signal by an enzyme label.
Chain of Y1 scFv (chain, as listed by the source): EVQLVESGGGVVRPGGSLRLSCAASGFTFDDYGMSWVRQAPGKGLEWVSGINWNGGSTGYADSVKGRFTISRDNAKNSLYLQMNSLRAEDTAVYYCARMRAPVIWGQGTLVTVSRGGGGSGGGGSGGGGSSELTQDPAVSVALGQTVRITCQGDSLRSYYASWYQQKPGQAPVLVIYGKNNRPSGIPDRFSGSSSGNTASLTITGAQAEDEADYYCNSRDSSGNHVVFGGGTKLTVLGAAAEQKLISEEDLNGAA
Assay [5] has as its target Y1 scFv. Nature of the assay: competition ELISA: Y1 0.25 µg/well preincubated with peptide at 0.5 µM, residual binding to glycocalicin. As to conditions: remark: other sources report otherwise.
In assay [6] the target is Y1 scFv. Nature of the assay: competition ELISA: Y1 0.25 µg/well preincubated with peptide at 2.5 µM, residual binding to glycocalicin. As to conditions: remark: other sources report otherwise.
Assay [7] has as its target Y1 scFv. Nature of the assay: competition ELISA: Y1 0.25 µg/well preincubated with peptide at 200 µM, residual binding to glycocalicin. Conditions: remark: other sources report otherwise.
The target in assay [8] is Y1 scFv. Nature of the assay: competitive FACS: Y1-scFv 1 µg preincubated with peptide at 2.5 µM, residual binding to washed platelets. As to conditions: remark: other sources report otherwise.
For assay [9], the target named is Y1 scFv. Put plainly: competitive FACS: Y1-scFv 1 µg preincubated with peptide at 200 µM, residual binding to washed platelets. As to conditions: remark: other sources report otherwise.

No end group written: not given here. *: point of attachment. sulfate = O=S(=O)(O)*

B1: Y1-biotag tetramers with streptavidin-PE (protein, part only; not given: streptavidin-PE carrier, not shown: another chain or arm of the molecule; large carriers; small tags and cut ends)
scFv 1: MEVQLVESGGGVVRPGGSLRLSCAASGFTFDDYGMSWVRQAPGKGLEWVSGINWNGGSTGYADSVKGRFTISRDNAKNSLYLQMNSLRAEDTAVYYCARMRAPVIWGQGTLVTVSRGGGGSGGGGSGGGGSSELTQDPAVSVALGQTVRITCQGDSLRSYYASWYQQKPGQAPVLVIYGKNNRPSGIPDRFSGSSSGNTASLTITGAQAEDEADYYCNSRDSSGNHVVFGGGTKLTVLGGGGLNDIFEAQKIEWHE
scFv 2: B1 scFv 1
scFv 3: B1 scFv 1
scFv 4: B1 scFv 1
modifications: Each chain pos 251: Lys of the BirA tag carries biotin, written K. The four chains are held non-covalently on streptavidin conjugated to phycoerythrin, which is not given.
Take B1: the fold more reactive in assay [1] was more than 100 fold. The same molecule registered a fold increase in sensitivity of the binding in assay [2] of more than 100 fold. Moreover, the fold higher response than other Y1 antibody forms in assay [3] was 10 to 20 fold.

In the case of GDEGDTDLY(sulfate)DY(sulfate)Y(sulfate)PEEDTE [P-1-S], the Residual Binding of Y1 (% of baseline) in the assay with Y1 scFv [4] is 25%; with Y1 scFv [5], 89%; with Y1 scFv [6], 62%; in the assay with Y1 scFv [7], 0%. The values for the Residual Binding of Y1 (% of baseline) (Geo Mean) with Y1 scFv [8] and in the assay with Y1 scFv [9] were 41% and 5%, respectively.
